# Test results: patent US20080124811A1 (AbbVie / Abbott, published 2008)
# How the values were obtained:
# [1] = molecular target: T1, human brain natriuretic peptide, cyclic BNP (1-32c) (human, cyclic: ring closed by a disulfide bond between the two cysteine residues; biotinylated or acridinium-labelled in some assays); experiment: surface plasmon resonance (BIAcore)
# T1 construct: also called hBNP; hBNP 1-32
# [2] = molecular target: T1, human brain natriuretic peptide, cyclic …; experiment: KinExA, solution phase
# [3] = molecular target: T1, human brain natriuretic peptide, cyclic …; experiment: BIAcore SPR, antibody captured on goat anti-mouse Fc, BNP in solution, 25 C
# Method: The carboxymethyl-dextran biosensor is activated with a 1:1 mixture of 0.4 M EDC and 0.1 NHS at 20 μL/minute. GAMFc in 10 mM sodium acetate (pH 5.0) is coupled to the activated surface with a 10 minute injection. The surface is then deactivated with 1 M ethanolamine pH 8.5 for 8 minutes followed by another 10 minute injection of GAMFc. This is followed with a biosensor conditioning of ten 60 second injections of 150 mM H₃PO₄ at a flow rate of 30 μL/min. ˜14 kRU, resonance units, of GAMFc is coupled to the biosensor in each flow cell.
# (§1) After loading each Ab onto the biosensor, all flow cells are allowed to equilibrate for 5-6 minutes with SPR running buffer at a flow rate of 75 μL/min before a 150 μL injection of BNP or running buffer followed by 360 seconds of dissociation time. Subsequently, the flow rate is changed to 30-100 μL/min and the surface is then regenerated with three 33-60 second pulses of 100-150 mM phosphoric acid at a flow rate of 30-100 μL/min.
# [4] = molecular target: T1, human brain natriuretic peptide, cyclic …; experiment: … sandwich CMIA; capture 3-631-436 on microparticles, detection 106.3AM1-acridinium
# Method: (§2) An aliquot containing a calibrator solution was delivered to the same well of the reaction vessel as the microparticles to form a reaction mixture. The calibrator solution contained hBNP full-length peptide. The microparticles coated with the capture antibody in a Tris/BSA diluent were pipetted by the sampling probe into the appropriate wells of the reaction vessel in the sampling center. […] After the incubation, the reaction mixture was washed with the […] ® Line Diluent to remove any of the calibrator that was not captured.
# (§3) The mAb-Acridinium-conjugates at about 50-100 ng/mL were dispensed into the reaction vessel and incubated for approximately 4 minutes at a temperature of about 37° C. After the incubation, the reaction vessel was washed with the […] ® Line Diluent to remove the unbound materials.
# (§4) The […] ® system measures the acridinium signals which are typically measured in relative light units (hereinafter “rlu's”). Measurements were made in triplicate.
# [5] = molecular target: T1, human brain natriuretic peptide, cyclic …; experiment: … sandwich CMIA; capture 3631436 ms on microparticles, detection 106.3AM2-acridinium
# Method: Particles were washed and overcoated with BSA. These particles were used to capture BNP peptide in the assay during the first (1st) incubation with Architect BNP calibrators or specimens.
# (§5) An aliquot containing a calibrator solution was delivered to the same well of the reaction vessel as the microparticles to form a reaction mixture. The calibrator solution contained hBNP full-length peptide. The microparticles coated with the capture antibody in a Tris/BSA diluent were pipetted by the sampling probe into the appropriate wells of the reaction vessel in the sampling center. […] After the incubation, the reaction mixture was washed with the […] ® Line Diluent to remove any of the calibrator that was not captured. The […] ® Line Diluent is commercially available from Abbott Laboratories, Abbott Park, Ill.
# The mAb-Acridinium-conjugates at about 100 ng/mL were dispensed into the reaction vessel and incubated for approximately 4 minutes at a temperature of about 37° C. After the incubation, the reaction vessel was washed with the […] ® Line Diluent to remove the unbound materials.
# [6] = molecular target: T1, human brain natriuretic peptide, cyclic …; experiment: Biacore SPR, antibody captured on goat anti-mouse Fc, BNP injected, 1:1 Langmuir fit
# Method: GAMFc in 10 mM sodium acetate (pH 5.0) is coupled to the activated surface with a 10 minute injection. The surface is then deactivated with 1 M ethanolamine pH 8.5 for 8 minutes followed by another 10 minute injection of GAMFc. This is followed with a biosensor conditioning of ten 60 second injections of 150 mM H₃PO₄ at a flow rate of 30 μL/min. ˜14 kRU, resonance units, of GAMFc is coupled to the biosensor in each flow cell.
# as §1
# [7] = molecular target: T1, human brain natriuretic peptide, cyclic …; experiment: … sandwich CMIA; capture 3-631-436 on microparticles, detection 106.3AM1-acridinium; second particle type
# Method: as §2, §3, §4
# [8] = molecular target: T1, human brain natriuretic peptide, cyclic …; experiment: yeast display off-rate assay, flow cytometry; t1/2 = ln 2/koff
# Method: At each individual time point, yeast cells were transferred to ice to halt the reaction. Cells were then washed twice with PBS/BSA and suspended in secondary staining reagents, specifically, SA:PE and GAM:FITC. Cells were incubated on ice for 30 minutes, washed twice and then analyzed on the FACS Aria flow cytometer. […] A first order decay equation was used to fit the data.
# [9] = molecular target: T1, human brain natriuretic peptide, cyclic …; experiment: off-rate assay on yeast-displayed scFv by flow cytometry: biotinylated cyclic BNP (1-32c), chase with unlabelled BNP 1-32c, SA:PE, first order decay fit
# Method: At each time point, cells were transferred to ice, washed and incubated with SA:PE. After 30 minutes, cells were washed again and analyzed on the flow cytometer. A first order decay equation was used to fit the individual time points where m1 was the theoretical maximum mean fluorescence units (“MFU”) at time 0, m2 was the off-rate (“koff”), m3 was the background MFU due to autofluorescence, and M0 was the time x (the x being the time that is being measured) that measurements are taken.
# A first order decay equation was used to fit the data.
# [10] = molecular target: T1, human brain natriuretic peptide, cyclic …; experiment: off-rate assay on yeast-displayed scFv by flow cytometry: biotinylated cyclic BNP (1-32c), chase with unlabelled BNP 1-32c, SA:PE; m2 of the first order decay fit (error 3.6694e-06, R 0.9993), time axis in sec
# [11] = molecular target: T1, human brain natriuretic peptide, cyclic …; experiment: off-rate assay on yeast-displayed scFv; improvement of koff over 3-631-436 wt
# [12] = molecular target: T1, human brain natriuretic peptide, cyclic …; experiment: off-rate assay on yeast-displayed scFv by flow cytometry: biotinylated cyclic BNP (1-32c), chase with unlabelled BNP 1-32c, SA:PE, first order decay fit; remark: listed apart in the source
# [13] = molecular target: T1, human brain natriuretic peptide, cyclic …; experiment: off-rate assay on yeast-displayed scFv; improvement of koff over 106.3 wt
# [14] = molecular target: T1, human brain natriuretic peptide, cyclic …; experiment: KinExA, solution phase; remark: listed apart in the source
# [15] = molecular target: T1, human brain natriuretic peptide, cyclic …; experiment: BIAcore SPR, cAb captured on goat anti-human Fc, BNP in solution, 25 C
# Method: The carboxymethyl-dextran biosensor is activated with an 8 minute injection of a 1:1 mixture of 0.4 M EDC and 0.1 NHS at 20 μL/minute. GAHFc in 10 mM sodium acetate (pH 5.0) is coupled to the activated surface with a 10 minute injection. The surface is then deactivated with 1 M ethanolamine pH 8.5 for 8 minutes followed by another 10 minute injection of GAHFc.
# A frozen (−80° C.) aliquot of BNP in dH₂O at 100 μM is diluted into SPR Running Buffer to a concentration of 100 μM.
# The sample solution is then switched back to SPR running buffer for another ˜7 hours. The surface is then regenerated with three 33 second pulses of 100 mM phosphoric acid at a flow rate of 100 μL/min.
# [16] = molecular target: T1, human brain natriuretic peptide, cyclic …; experiment: … sandwich CMIA; capture 106.3AM1 on microparticles, detection 3-631-436-acridinium
# Method: as §2, §3, §4
# [17] = molecular target: T1, human brain natriuretic peptide, cyclic …; experiment: … sandwich CMIA; capture 106.3AM1 on microparticles, detection 3-631-436-acridinium; second particle type
# Method: as §5, §3
# A solution of hydrogen peroxide and then sodium hydroxide was added to the reaction vessel and the chemiluminescent signal was measured by the chemiluminescent microparticle immunoassay (CMIA) optical assembly of the […] ® instrument.
binder,measurement,setting,value
"106.3 wt (Mouse IgG1) (antibody, V domains shown, also called HB-12044) VH: QLVQSGPELRKPGETVKISCKGSGYTFTHYGINWVKQTPRKDLKWMGWINTHTGEPIYADDFKGRFAFSLETSANTAYLQINNLNNGDMGTYFCTRSHRFGLDYWGQGTSVTVSS VL: DNVLTQSPPSLAVSLGQRATISCKASQSVDYNGDSYLNWYQQKPGQPPKFLIYAASNLESGIPARFSGSGSGTDFNLNIHPVEEEDAATYYCQQSNEDPFTFGSGTKLEIKR",Kd,[1],18 pM
same,koff,[1],0.00022 s⁻¹
same,kon,[1],1.2e+07 M⁻¹ s⁻¹
"monoclonal antibody 3-631-436 (wild-type mouse mAb from hybridoma cell line 3-631-436, A.T.C.C. PTA-6476) (antibody, V domains shown, In the sandwich assays the antibody was coupled to particles, biotinylated or acridinium-labelled; the letters do not carry this., the whole entry is named for each chain and must be cut at the linker; Coated on particles, biotinylated or acridinium-conjugated in the sandwich assays) VH: QVQLQQPGAELVRPGASVKLSCKASGYTFTSYWMNWVKQRPEQGLEWIGRIDPYDSETHYNQKFKDKAILTVDKSSSTAFVQLTSLTSEDSAVYYCVSDGYWGAGTTVTVSS VL: DVVMTQTPLTLSVTTGQPASISCKSSQSLLDSDGKTYLNWLFQRPGESPKLLIYVVSKLESGVPDRFTGSGSGTDFTLKISRVEAEDLGVYYCLQATHFPWTFGGGTKLEIK",Kd,[2],286 pM
same,Kd,[3],380 pM
same,koff,[3],0.0025 s⁻¹
same,kon,[3],6.7e+06 M⁻¹ s⁻¹
same,Ratio B/A (RLU at 30 pg/mL over 0 pg/mL),[4],1.9
same,Ratio C/A (RLU at 300 pg/mL over 0 pg/mL),[4],27.8
same,Ratio D/A (RLU at 1000 pg/mL over 0 pg/mL),[4],196
same,Ratio E/A (RLU at 2000 pg/mL over 0 pg/mL),[4],471
same,Ratio B/A (RLU at 30 pg/mL over 0 pg/mL),[5],2.7
same,Ratio C/A (RLU at 300 pg/mL over 0 pg/mL),[5],14.3
same,Ratio D/A (RLU at 1000 pg/mL over 0 pg/mL),[5],32.4
same,Ratio E/A (RLU at 2000 pg/mL over 0 pg/mL),[5],198
same,Ratio F/A (RLU at 5000 pg/mL over 0 pg/mL),[5],595
same,Kd,[6],375 pM
same,Ratio B/A (RLU at 30 pg/mL over 0 pg/mL),[7],2.4
same,Ratio C/A (RLU at 300 pg/mL over 0 pg/mL),[7],23.9
same,Ratio D/A (RLU at 1000 pg/mL over 0 pg/mL),[7],145
same,Ratio E/A (RLU at 2000 pg/mL over 0 pg/mL),[7],409
"3-631-436 (mIgG2bκ, IgG name AM1) (antibody, V domains shown, recombinant wild-type variable domains on mouse IgG2b/kappa) VH: QVQLQQPGAELVRPGASVKLSCKASGYTFTSYWMNWVKQRPEQGLEWIGRIDPYDSETHYNQKFKDKAILTVDKSSSTAFVQLTSLTSEDSAVYYCVSDGYWGAGTTVTVSS VL: DVVMTQTPLTLSVTTGQPASISCKSSQSLLDSDGKTYLNWLFQRPGESPKLLIYVVSKLESGVPDRFTGSGSGTDFTLKISRVEAEDLGVYYCLQATHFPWTFGGGTKLEIKR",Kd,[6],363 pM
same,koff,[6],0.0029 s⁻¹
same,kon,[6],8.4e+06 M⁻¹ s⁻¹
"106.3 single-chain variable fragment (scFv), unmutated, on yeast (scFv) QIQLVQSGPELRKPGETVKISCKGSGYTFTHYGINWVKQTPRKDLKWMGWINTHTGEPIYADDFKGRFAFSLETSANTAYLQINNLNNGDMGTYFCTRSHRFGLDYWGQGTSVTVSSGPAKELTPLKEAKVSDNVLTQSPPSLAVSLGQRATISCKASQSVDYNGDSYLNWYQQKPGQPPKFLIYAASNLESGIPARFSGSGSGTDFNLNIHPVEEEDAATYYCQQSNEDPFTFGSGTKLEIK",half-life (t1/2),[8],2.28 h
same,koff,[9],8.4e-05 s⁻¹
same,koff,[10],8.44e-05 s⁻¹
"L2 9 (scFv, selected by off-rate sorting; member of group m17) scFv (VH-linker-VL with V5 and 6His tags), displayed on yeast: QVQLQQPGAELVRPGASVKLSCKASGYTFTSYWMNWVKQRPEQGLEWIGRIDPYDSETHYNQKFKDKAILTVDKSSSTAFVQLTSLTSEDSAVYYCVSDGYWGAGTTVTVSSGPAKELTPLKEAKVSDVVMTQTPLTLSVTTGQPASISCKSSQSLLDSDGKTYLNWLFQRPGESPKLLIYVTDKLESGVPDRFTGSGSGTDFTLKISRVEAEDLGVYYCLQATHFPWTFGGGTKLEIKRAAALESRGPFEGKPIPNPLLGLDSTRTGHHHHHH",Fold Improvement,[11],10 fold
same,koff,[12],0.0005 s⁻¹
"L2 10 (scFv, selected by off-rate sorting; member of group m17) scFv (VH-linker-VL with V5 and 6His tags), displayed on yeast: QVQLQQPGAELVRPGASVKLSCKASGYTFTSYWMNWVKQRPEQGLEWIGRIDPYDSETHYNQKFKDKAILTVDKSSSTAFVQLTSLTSEDSAVYYCVSDGYWGAGTTVTVSSGPAKELTPLKEAKVSDVVMTQTPLTLSVTTGQPASISCKSSQSLLDSDGKTYLNWLFQRPGESPKLLIYRTNKLESGVPDRFTGSGSGTDFTLKISRVEAEDLGVYYCLQATHFPWTFGGGTKLEIKRAAALESRGPFEGKPIPNPLLGLDSTRTGHHHHHH",Fold Improvement,[11],3 fold
same,koff,[12],0.0019 s⁻¹
"H2 288 (scFv, member of group m4) scFv (VH-linker-VL with V5 and 6His tags), displayed on yeast: QLVQSGPELRKPGETVKISCKGSGYTFTHYGINWVKQTPRKDLKWMGWINTHTGEAYYADDFKGRFAFSLETSANTAYLQINNLNNGDMGTYFCTRSHRFGLDYWGQGTSVTVSSGPAKELTPLKEAKVSDNVLTQSPPSLAVSLGQRATISCKASQSVDYNGDSYLNWYQQKPGQPPKFLIYAASNLESGIPARFSGSGSGTDFNLNIHPVEEEDAATYYCQQSNEDPFTFGSGTKLEIKRAAALESRGPFEGKPIPNPLLGLDSTRTGHHHHHH",Fold Improvement,[13],2.3 fold
same,koff,[9],3.7e-05 s⁻¹
"wild-type 106.3 chimeric antibody (cAb) (antibody, human IgG1, V domains shown, Chimeric mouse variable domains on human IgG1/human kappa; also called anti-BNP WT/WT) VH: QIQLVQSGPELRKPGETVKISCKGSGYTFTHYGINWVKQTPRKDLKWMGWINTHTGEPIYADDFKGRFAFSLETSANTAYLQINNLNNGDMGTYFCTRSHRFGLDYWGQGTSVTVSS VL: DNVLTQSPPSLAVSLGQRATISCKASQSVDYNGDSYLNWYQQKPGQPPKFLIYAASNLESGIPARFSGSGSGTDFNLNIHPVEEEDAATYYCQQSNEDPFTFGSGTKLEIK",Kd,[14],1.7 pM
same,Kd,[15],19 pM
same,koff,[15],0.00015 s⁻¹
same,kon,[15],7.8e+06 M⁻¹ s⁻¹
"106.3 AM1 chimeric antibody (antibody, V domains shown, Conjugated to acridinium or biotinylated in the sandwich assays (Examples 4 and 7); the sites are not defined., PTA-6987; Acridinium-conjugated or biotinylated in the sandwich assays) VH: QIQLVQSGPELRKPGETVKISCKGSGYTFTHYGINWVKQTPRKDLKWMGWINTHTGEAYYADDFKGRFAFSLETSANTAYLQINNLNNGDMGTYFCTRSHRFGLDYWGQGTSVTVSS VL: DNVLTQSPPSLAVSLGQRATISCKANWPVDYNGDSYLNWYQQKPGQPPKFLIYAASNLESGIPARFSGSGSGTDFNLNIHPVEEEDAATYYCQQSNEDPFTFGSGTKLEIK",Kd,[14],9.3 pM
same,Kd,[15],1.9 pM
same,koff,[15],2.4e-05 s⁻¹
same,kon,[15],1.3e+07 M⁻¹ s⁻¹
same,Ratio B/A (RLU at 30 pg/mL over 0 pg/mL),[16],1.6
same,Ratio C/A (RLU at 300 pg/mL over 0 pg/mL),[16],17.5
same,Ratio D/A (RLU at 1000 pg/mL over 0 pg/mL),[16],126
same,Ratio E/A (RLU at 2000 pg/mL over 0 pg/mL),[16],394
same,Ratio B/A (RLU at 30 pg/mL over 0 pg/mL),[17],1
same,Ratio C/A (RLU at 300 pg/mL over 0 pg/mL),[17],5.5
same,Ratio D/A (RLU at 1000 pg/mL over 0 pg/mL),[17],40.5
same,Ratio E/A (RLU at 2000 pg/mL over 0 pg/mL),[17],132
